In assay [1] the target is STnMUC1 peptide, biotinylated. Description: SPR (Biacore T200): biotinylated STnMUC1 peptide (35-1) captured on CAP chip, scFv as analyte, 1:1 fit, average. (In general: SPR reads the build-up and loss of mass on a sensor chip optically.)
The target of assay [2] is STnMUC1 peptide, biotinylated. The experiment in a line: SPR (Biacore T200): biotinylated STnMUC1 peptide (35-1) captured on CAP chip, scFv as analyte.
Assay [3] concerns the target TnMUC1 peptide 1 (partially glycosylated), biotinylated. The experiment in a line: SPR (Biacore T200): biotinylated TnMUC1 peptide 1 (96-1) captured on CAP chip, scFv as analyte, 1:1 fit, average.
In assay [4] the target is TnMUC1 peptide (fully glycosylated), biotinylated. The experiment in a line: SPR (Biacore T200): biotinylated TnMUC1 peptide batch 65-1 captured on CAP chip, scFv as analyte, 1:1 fit, average.

Experimental findings from US20230374151A1 are described below.

Chain of STnMUC1 peptide, biotinylated (main, as listed by the source): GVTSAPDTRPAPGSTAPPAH

As a reminder, the Kd is the concentration at which binding is half-saturated. A higher Kd goes with weaker binding. As a reminder, the koff is a measure of how fast the partners let go of each other. A low value points to slow dissociation. As a reminder, the kon is the second-order rate constant of association. Low values mean slower complex formation, high ones faster complex formation. In the case of “murine 5E5 scFv protein (23-P1) obtained from Creative Biolabs”, the Kd was 84.1 nM in assay [1], 84 nM in assay [2], 28.7 nM in assay [3] and 26.6 nM in assay [4]. Besides, the results for the koff in assay [1], in assay [3] and in assay [4] were 0.000282 s⁻¹, 0.000803 s⁻¹ and 0.000845 s⁻¹, respectively. Besides, in assay [1], the kon was 3350 M⁻¹ s⁻¹.
